From the DeepSol protein solubility set

Test: soluble on expression in E. coli; label from the status in PepcDB or PDB records

Sequence | soluble on expression in E. coli
MPINFHDANNKYTYAQRNAHISWGEMIKGITNIQNKQIIDIGCGGGIYTKELALMGAKSVVGLDFSKEILQAAKENCSGFSNISFIHGDAHSTPYPNDTFDIVISRAVIHHLQDIPTFLREASRILKKNGVLIVQDRTIEDCTIPGSPEHIRGYFFSIFPKLIEIESKRRPKTTTIQKELQKYFLHVFPTQTQWEVRKIHDSVEALLQDLSPRTGRSILYELTDYELSQLLQQVQTALQNVSPIIERDRWTIWSAMKL | not soluble
MPIVYYDGNCIYCYNYVIWLIQHDLPRNYQFATLKGEVGQQFFKQHPEAANKNSVILQKGDRIYFESQAIIKLITALPNRTKLLGVGLWLVPKPVRNFGYRMFANNRNRMWKTTWHQPNDYEKSFFLDDNAKVKLTD | not soluble
MPKIQNIVTVSSQEYRDAMSHFAGAVHIVTTNGIKGKRGVTISACCSLSDDPPTLLVCLMRHNLKNHLFIENGNFCVNSLAGKHRSLADIFSRRYNYTETECFDRAQWGTLQTGAPSLSDALASFDCRLICWHEHATHYILIGEVIAINRNQEKDALIYLNRGYHTLPL | not soluble
MPKQKASYEALLEEVVETLKHSPDGVNEIVESSAKYVDAANDLTKDELALISAYVKADLKEFSQSFEQSKSSPFYLMITNSIWQGLLDITDRTKVEWVELFADLEHQGLYQAGDMIGLGVLICDQCGHKTEFNHPTEIEPCSQCGGKAFSRQPLKP | not soluble
MPLALAQLQDIGDRITDRLRPWSRSAEFWVRAADIYTSYKVAPPDPVPLLHWLVCQLRAGFVKDEEEREAMWEQQHELGAQKMYSLCSELGGLFLKEAAQILGKPDLAPMAWVKRLVTLCDNAPATPIDVVRDVVEKQFGKSFDDIFECFDVEPVGSASIAQVHRARLKLSKTDVAVKVQHPGAEKLMMVDIRNMQAFALFLQKYDINFDLYSATKEMEKQICYEFDFVREAKAMERIREFLRVTNKKKPPVIVPRVIPEMVSREVLVMEFIEGTPIMNLGNEMAKRGIDPGGKIATMAKQKILTDLTLAYGQMILKDGFFHADPHPGNILICKNTEARLLFLFLFLAMVALLDYGQVKAMPEDLRLAYANLVIAMADDDFLRTKESFREIGIETWSIADNELEELFQLSLRMFDTRLPPGVTAMSPFAEDSSLNKVGVQNCLLNGVSILFFYLKSFPEELFSVLRTIQLLRGLTVGMGLRFSCAQQWKPIAEEALLKSGRLKDY | soluble
MPLELTQSRVQKIWVPVDHRPSLPRSCGPKLTNSPTVIVMVGLPARGKTYISKKLTRYLNWIGVPTKVFNVGEYRREAVKQYSSYNFFRPDNEEAMKVRKQCALAALRDVKSYLAKEGGQIAVFDATNTTRERRHMILHFAKENDFKAFFIESVCDDPTVVASNIMEVKISSPDYKDCNSAEAMDDFMKRISCYEASYQPLDPDKCDRDLSLIKVIDVGRRFLVNRVQDHIQSRIVYYLMNIHVQPRTIYLCRHGENEHNLQGRIGGDSGLSSRGKKFASALSKFVEEQNLKDLRVWTSQLKSTIQTAEALRLPYEQWKALNEIDAGVCEELTYEEIRDTYPEEYALREQDKYYYRYPTGESYQDLVQRLEPVIMELERQENVLVICHQAVLRCLLAYFLDKSAEEMPYLKCPLHTVLKLTPVAYGCRVESIYLNVESVCTHRERSEDAKKGPNPLMRRNSVTPLASPEPTKKPRINSFEEHVASTSAALPSCLPPEVPTQLPGQNMKGSRSSADSSRKH | soluble
MPLLDIRHLTIEIDTPQGLVKAVDRMSLTMNEGEIRGLVGESGSGKSLVAKAIVGICKENWRVTADRMRLGNIDLLQLTPRERRRVIARDVAMIFQEPSTCLDPSEEVGRQLIESIPFRTFEGRWWERFTWRKKQAIALLHKVGIKDHKDIMSSYPYELTDGECQKVMIAMAIAAKPKLLIADEPTNDVDPITQSQILRLLSRMNQVNNTSILLIGHDLTTITQWADRITVMYCGQSVESAETAKIVAEPKHPYTAALLKAMPDFSDWIPHKQKLQSLPGSIPPLQHLPIGCRLGPRCPYAQRQCVEVPHSRWVKNHKFSCHFPLNMESPQ | not soluble
MPLLDSFTVDHTRMNAPAVRVAKTMQTPKGDTITVFDLRFTMPNKDILSERGIHTLEHLYAGFMRNHLNGSQVEIIDISPMGCRTGFYMSLIGAPTEQQVAQAWLAAMQDVLKVESQEQIPELNEYQCGTAAMHSLEEAKAIAKNVIAAGISVNRNDELALPESMLNELKVH | not soluble
MPLMRAIGVIRKSRGERWSREEFEELLRSAGYEILAIVEQVREEHPRYNIGPGKLEEVKKLVKELKPDKVIFANRLTPSQAYNLWKELRVDIIDKWQLVLEIFEKRAHSKEAKLQVELANLQYELPLVKEAIRRIKMGDRAGFKGMGEYQVHQYLKHIKYRMGRIKGELEKIRAEREIRRKKREEEGFVLIALAGYTNAGKSTLLNALTGEDIEAKNQMFTTLDTTTRRFKVKGKMLLVTDTVGFIDGLPPFIVEAFHSTLEEIVKADIIILVLDASEPWKEIRRKLFASLNVLRELKALDRPMIVALNKVDLISDEDAKEKELLVRETIDGRANTVGVARISAKLNQLEELYNLIEVALSRLPKFQTFEIRVKDPSKLGKVLSMVHSMGDLLEVEYSEETKIKAYIQTGLIRELTKLGVSLKRISLEHHHHHH | not soluble
MPLPMNSGEKVKAVGRSYNPGRPLCLEDRKKIVRLYEEGCRVSHIARLIGVTHSCVSKIMSRYRRTGSVQPRSFRATENQENDNATWQQQQLKQQQKKEKPLPFSIERF | soluble
MPLSQEESTLIERATATINSIPISEDYSVASAALSSDGRIFTGVNVYHFTGGPCAELVVLGTAAAAAAGNLTCIVAIGNENRGILSPCGRCRQVLLDLHPGIKAIVKDSDGQPTAVGIRELLPSGYVWEG | soluble
MPLTPLHQVELRLMRTVIAICEAENIDYFLIGGSLLGAIRHHGFIPWDDDIDIGMRRHDYQRFIAVANHHLDPNKFFLQTGASDPDYALSYMKLLDVNTYIEERNNVNNAFKGVFVDIFPFDKIPDDEALRRSQMLHYKLADAAILLKLNYRFVKTPLRNLITKHTPQQLAEVNRYKLEREEYMRLYEQSDSRTYKNLASQYDYEKEIMTYQELTELTTVPFEDIQVKIPSAYDTILTRMYGDYMQLPPADKRVEKHLNKLIIDNHEILLEHHHHHH | not soluble
MPLTTNTILICAGGACISAGEKSVKDAFEEELRKYGLDEVVRVIETGCMGACTLGPIAVIYPESVFYQKLTPDAAREIVEEHILKGRIVEKYLYKASEGKPVPRVHEEVPFFKKQVRIVTRNLGVIDPTKIEEYIARDGYFALAKALQMKPEDVIKEIKDSGLRGRGGAGFPTGLKWELAARQKAEKKFVVCNADEGDPGAFMDRSVLEGDPHAVIEGMAIAAYAIGAQKGFVYVRAEYPLAIERLNIALNQAREYGFLGGNIMGTDFSFDIEIRIGAGAFVCGEETALMASIEGERGQPKVKPPYPVEKGLWGYPTVINNVETLANVPWIIRNGAKEFRKYGTENSPGTKVFALAGKVKNTGLVEVPMGITLRELIYEIGGGIAGDKKLKAIQTGGPSGGCIPAEYVDTPVDFESLQKLGAIMGSGGMIVMDEDDCMVDVARFFLEFTVEESCGKCTPCREGTKKMLEILEKITSGEGTEEDIEELEKLAHVVKDTSLCGLGQTAPNPVLSTLRYFRDEYLAHVKEKRCPSKKCKALISYVIDPEKCVGCTACARVCPVQCISGQVRQPHVIDQAECVRCGSCIEVCRFGAISKVTPALPVEEAVEAAALEHHHHHH | not soluble
MPMKEFPGLFLWKMWSLDKKKENMLKTHDPGISRLEPVTKTKPWREPLWERNWQGQHLDSRGYLAGPGREDGRNPLKLFVRATLQESLQFHRPDFISHIWERIKRLKLIVQERKLQSMLKSERDALFDIDRERQGHQNRMRPLPKRVFLAVQKNKPISKKEMIQRSKRTHAGGTVAQRLPGALWVKERLPGKGEKHPGIPVTSGSSTQTM | not soluble
MPMSTDVQGRALAVLNRVAQADWPDRFNLRKPFEKLLYSGSRTGFRLASERSAKQAKGPRKADPDGLFDLSFSDDQQMLVDMLEGFALEVLRPLAHDADAEASLPAELLNQALELGLTHYGVGEVHGGMAGERTTVTTALIAEALAKGDLTLAAALLVPLSAANCIRRWGSPSQQAQWLPAFVSEEGAPLTAIAVNEPSLLFDPQKLATRARRKGSHYLLSGEKCLVLRGLEASRLIVAAKTDEGPALFLVEASAKGVERRAEPAMGLKAGGTARLRLKSVKVPADNRLAAEHFDYRAFLDHASLAWCALALGTGQAALDYVIAYCNEREAFGEPISHRQGVAFMVADIAIELDAMRLMVWRACALAERGQPFQREAYLARLLCAEKAMKIGTDAVQLLGGHGFT | not soluble
